Results reported in the Human Domainome abundance scans (Beltran et al. 2025).
± gives the uncertainty stated by the source.

B1: E3 ubiquitin-protein ligase TRIM36, residues 208 to 252; numbered along this chain, Q9NQ86 (parent)
chain: KILMCPEHETERINMYCELCRRPVCHLCKLGGNHANHRVTTMSSA
B2: GAS2-like protein 1, residues 209 to 276; numbered along this chain, Q99501 (parent)
chain: DELVREILGRCTCPDQFPMIKVSEGKYRVGDSSLLIFVRVLRSHVMVRVGGGWDTLEHYLDKHDPCRC

Variants of: B1
Assay: abundance fitness (aPCA) (normalised: wild type 0, dead -1); higher = more abundant; growth selection in yeast, the domain comes from the species named
Conditions: Homo sapiens

Row | Variant | abundance fitness
1 | KILMCPEHETERINMYCELCRRPVCHSCKLGGNHANHRVTTMSSA [L27S] | -0.003 ± 0.055
2 | KILMCPEHETERINMYCELCRRPVCHPCKLGGNHANHRVTTMSSA [L27P] | -0.355 ± 0.071
3 | KILMCPEHETERINMYCELCRRPVCTLCKLGGNHANHRVTTMSSA [H26T] | -0.226 ± 0.068
4 | KIMMCPEHETERINMYCELCRRPVCHLCKLGGNHANHRVTTMSSA [L3M] | 0.092 ± 0.056
5 | KIHMCPEHETERINMYCELCRRPVCHLCKLGGNHANHRVTTMSSA [L3H] | -0.131 ± 0.078
6 | KILMCPKHETERINMYCELCRRPVCHLCKLGGNHANHRVTTMSSA [E7K] | -0.085 ± 0.06
7 | KILMCPEHETERINMYCELCRRPVCHLCKLGGNHAGHRVTTMSSA [N36G] | -0.059 ± 0.053
8 | KILMCPEFETERINMYCELCRRPVCHLCKLGGNHANHRVTTMSSA [H8F] | -0.795 ± 0.34
9 | KILMCPEHETERINMYCELHRRPVCHLCKLGGNHANHRVTTMSSA [C20H] | -0.665 ± 0.13
10 | KILMCPEHETERINMYCELCRRPVCHLCKLGGFHANHRVTTMSSA [N33F] | -0.125 ± 0.092
11 | KILMCPEHETYRINMYCELCRRPVCHLCKLGGNHANHRVTTMSSA [E11Y] | 0.082 ± 0.27
12 | KILMCPEHETWRINMYCELCRRPVCHLCKLGGNHANHRVTTMSSA [E11W] | -0.52 ± 0.13
13 | KALMCPEHETERINMYCELCRRPVCHLCKLGGNHANHRVTTMSSA [I2A] | -0.165 ± 0.047
14 | KILMCPEHETERINMYCELCRRPVCHLCHLGGNHANHRVTTMSSA [K29H] | -0.066 ± 0.075
15 | KILMCPEHETERINMYCELCRRPVCHLCKLGGNHANHRVFTMSSA [T40F] | -0.317 ± 0.11
16 | KILMCPEHETERINMYCELCRRPVCHLCKLGGNHANHIVTTMSSA [R38I] | -0.11 ± 0.087
17 | KILMCPEHMTERINMYCELCRRPVCHLCKLGGNHANHRVTTMSSA [E9M] | -0.099 ± 0.065
18 | KILMCPEHETERINMYCELCRRPVCHLNKLGGNHANHRVTTMSSA [C28N] | -0.546 ± 0.41
19 | KILMCPEHETERINMYCELCRRPVCHLAKLGGNHANHRVTTMSSA [C28A] | -0.672 ± 0.079

Variants of: B2
Assay: as above
Conditions: Homo sapiens

Row | Variant | abundance fitness
20 | DPLVREILGRCTCPDQFPMIKVSEGKYRVGDSSLLIFVRVLRSHVMVRVGGGWDTLEHYLDKHDPCRC [E2P] | -0.218 ± 0.097
21 | DHLVREILGRCTCPDQFPMIKVSEGKYRVGDSSLLIFVRVLRSHVMVRVGGGWDTLEHYLDKHDPCRC [E2H] | -0.006 ± 0.2
22 | DVLVREILGRCTCPDQFPMIKVSEGKYRVGDSSLLIFVRVLRSHVMVRVGGGWDTLEHYLDKHDPCRC [E2V] | -0.434 ± 0.075
23 | DTLVREILGRCTCPDQFPMIKVSEGKYRVGDSSLLIFVRVLRSHVMVRVGGGWDTLEHYLDKHDPCRC [E2T] | 0.012 ± 0.1
24 | DKLVREILGRCTCPDQFPMIKVSEGKYRVGDSSLLIFVRVLRSHVMVRVGGGWDTLEHYLDKHDPCRC [E2K] | 0.031 ± 0.072
25 | DRLVREILGRCTCPDQFPMIKVSEGKYRVGDSSLLIFVRVLRSHVMVRVGGGWDTLEHYLDKHDPCRC [E2R] | 0 ± 0.064
26 | DDLVREILGRCTCPDQFPMIKVSEGKYRVGDSSLLIFVRVLRSHVMVRVGGGWDTLEHYLDKHDPCRC [E2D] | 0.149 ± 0.083
27 | DNLVREILGRCTCPDQFPMIKVSEGKYRVGDSSLLIFVRVLRSHVMVRVGGGWDTLEHYLDKHDPCRC [E2N] | 0.073 ± 0.076
28 | DSLVREILGRCTCPDQFPMIKVSEGKYRVGDSSLLIFVRVLRSHVMVRVGGGWDTLEHYLDKHDPCRC [E2S] | -0.06 ± 0.089
29 | DALVREILGRCTCPDQFPMIKVSEGKYRVGDSSLLIFVRVLRSHVMVRVGGGWDTLEHYLDKHDPCRC [E2A] | -0.263 ± 0.057
30 | DFLVREILGRCTCPDQFPMIKVSEGKYRVGDSSLLIFVRVLRSHVMVRVGGGWDTLEHYLDKHDPCRC [E2F] | 0.1 ± 0.17
31 | DYLVREILGRCTCPDQFPMIKVSEGKYRVGDSSLLIFVRVLRSHVMVRVGGGWDTLEHYLDKHDPCRC [E2Y] | -0.057 ± 0.065
32 | DCLVREILGRCTCPDQFPMIKVSEGKYRVGDSSLLIFVRVLRSHVMVRVGGGWDTLEHYLDKHDPCRC [E2C] | -0.282 ± 0.091
33 | DMLVREILGRCTCPDQFPMIKVSEGKYRVGDSSLLIFVRVLRSHVMVRVGGGWDTLEHYLDKHDPCRC [E2M] | -0.224 ± 0.087
34 | PELVREILGRCTCPDQFPMIKVSEGKYRVGDSSLLIFVRVLRSHVMVRVGGGWDTLEHYLDKHDPCRC [D1P] | -0.517 ± 0.48
35 | CELVREILGRCTCPDQFPMIKVSEGKYRVGDSSLLIFVRVLRSHVMVRVGGGWDTLEHYLDKHDPCRC [D1C] | -0.657 ± 0.23
36 | VELVREILGRCTCPDQFPMIKVSEGKYRVGDSSLLIFVRVLRSHVMVRVGGGWDTLEHYLDKHDPCRC [D1V] | -0.653 ± 0.12
37 | RELVREILGRCTCPDQFPMIKVSEGKYRVGDSSLLIFVRVLRSHVMVRVGGGWDTLEHYLDKHDPCRC [D1R] | -0.624 ± 0.2
38 | LELVREILGRCTCPDQFPMIKVSEGKYRVGDSSLLIFVRVLRSHVMVRVGGGWDTLEHYLDKHDPCRC [D1L] | -0.761 ± 0.14
39 | WELVREILGRCTCPDQFPMIKVSEGKYRVGDSSLLIFVRVLRSHVMVRVGGGWDTLEHYLDKHDPCRC [D1W] | -0.621 ± 0.17
40 | AELVREILGRCTCPDQFPMIKVSEGKYRVGDSSLLIFVRVLRSHVMVRVGGGWDTLEHYLDKHDPCRC [D1A] | -0.623 ± 0.28
41 | YELVREILGRCTCPDQFPMIKVSEGKYRVGDSSLLIFVRVLRSHVMVRVGGGWDTLEHYLDKHDPCRC [D1Y] | -0.574 ± 0.15
42 | KELVREILGRCTCPDQFPMIKVSEGKYRVGDSSLLIFVRVLRSHVMVRVGGGWDTLEHYLDKHDPCRC [D1K] | -0.233 ± 0.23
